Results: the RNAGym collection of RNA variant scans (doi:10.7554/elife.80360)

B1: Twister Ribozyme (parent)
chain: AACACUGCCAAUGCCGGUCCCAAGCCCGGAUAAAAGUGGAGGGGGCGG

Variants of: B1
Assay: self-cleavage, relative activity (ratio to wild type); higher = more cleavage; co-transcriptional

| Variant | self-cleavage |
| --- | --- |
| A2G C15U | 0.503 |
| A2G C15A | 0.136 |
| A2G C15G | 0.0529 |
| A1U A23U | 0.0522 |
| A1G G44C | 0.251 |
| A1G G44U | 0.287 |
| A1G G13A | 0.383 |
| A1U G28C | 0.0644 |
| A1U G28U | 0.0658 |
| A1U A40G | 0.074 |
| A1U A40U | 0.0682 |
| A1G G16U | 0.726 |
| A1G G16A | 0.5 |
| A1G A34G | 0.361 |
| A1G A34U | 0.24 |
| A1C C14U | 0.19 |
| A1C C14A | 0.222 |
| A2C C15U | 0.088 |
| A2C C20G | 0.0956 |
| A1C A34G | 0.19 |
| A1C A34U | 0.176 |
| A1U C14G | 0.0363 |
| A1U C14A | 0.0917 |
| A2C G43C | 0.0309 |

| Variant | self-cleavage |
| --- | --- |
| A2C G43A | 0.1 |
| A2C G43U | 0.0462 |
| A1U A4G | 0.0751 |
| A1U A4U | 0.0259 |
| A1G A40G | 0.227 |
| A1U U12G | 0.0921 |
| A1U U12A | 0.0685 |
| A1U U12C | 0.0693 |
| A1C C15G | 0.187 |
| A1C G48U | 0.212 |
| A1G U6C | 0.202 |
| A1G U6A | 0.346 |
| A1G U6G | 0.0944 |
| A2C G45A | 0.0666 |
| A2C G45C | 0.0767 |
| A1C A4U | 0.116 |
| A1G G24C | 0.18 |
| A1G G24A | 0.144 |
| A1C U31C | 0.141 |
| A2C U37G | 0.057 |
| A1U A34C | 0.092 |
| A1U A2C | 0.118 |
| A1U A2G | 0.0622 |
| A1G G38A | 0.432 |

| Variant | self-cleavage |
| --- | --- |
| A2C A11G | 0.102 |
| A2C G16U | 0.0604 |
| A2C G16C | 0.0398 |
| A1C C8G | 0.187 |
| A1U G47U | 0.0673 |
| A1U G47A | 0.0626 |
| A1G G41U | 0.228 |
| A1G A23U | 0.296 |
| A1G A23G | 0.213 |
| A2C G44C | 0.035 |
| A1U U37G | 0.0556 |
| A1U U37A | 0.0677 |
| A1U G17U | 0.0683 |
| A1U G17C | 0.055 |
| A1U A11C | 0.0741 |
| A1U A11G | 0.0739 |
| A1C G38U | 0.22 |
| A2C G7U | 0.0484 |
| A1C A30U | 0.177 |
| A1C A30C | 0.199 |
| A1G G36C | 0.227 |
| A1G C27G | 0.178 |
| A1G C27U | 0.36 |
| A1G C27A | 0.189 |

| Variant | self-cleavage |
| --- | --- |
| A2G G7U | 0.0648 |
| A2C U12A | 0.0702 |
| A2C U12C | 0.094 |
| A1C G24A | 0.161 |
| A1C G24U | 0.111 |
| A1C A22C | 0.134 |
| A1G C8A | 0.22 |
| A2G C8U | 0.194 |
| A2G C8G | 0.0347 |
| A2G C8A | 0.153 |
| A2C C5U | 0.0782 |
| A1G C20G | 0.134 |
| A2C G48C | 0.0956 |
| A2G | 0.411 |
| A2C | 0.0941 |
| A1C U18C | 0.17 |
| A1C U18A | 0.14 |
| A1U C9G | 0.0577 |
| A1C C9U | 0.174 |
| A1C C9A | 0.221 |
| A2C A22G | 0.0432 |
| A2C A22U | 0.0564 |
| A2C A22C | 0.0812 |
| A1C G17C | 0.145 |

| Variant | self-cleavage |
| --- | --- |
| A2C G28A | 0.0374 |
| A2G G24A | 0.082 |
| A2G G24C | 0.0995 |
| A1U G44C | 0.0624 |
| A1U G44U | 0.0595 |
| A1U G39A | 0.0588 |
| A1U G39C | 0.0764 |
| A1G A11U | 0.47 |
| A1U U31A | 0.0544 |
| A1U U31G | 0.0468 |
| A1G C46U | 0.393 |
| A2G A34C | 0.151 |
| A2G A34G | 0.192 |
| A2C U31G | 0.177 |
| A1G A10C | 0.532 |
| A1U A33C | 0.0396 |
| A1U A33U | 0.0603 |
| A1U C3A | 0.222 |
| A2C G42C | 0.0693 |
| A2C G42U | 0.0469 |
| A2C G42A | 0.0532 |
| A1U C5G | 0.0467 |
| A2G A11C | 0.206 |
| A2G A11U | 0.583 |

| Variant | self-cleavage |
| --- | --- |
| A2G C3A | 0.171 |
| A2G C3G | 0.583 |
| A1G U37C | 0.192 |
| A1C C19U | 0.205 |
| A1C C19A | 0.123 |
| A2C A34G | 0.0505 |
| A1G G7C | 0.0808 |
| A1C G47C | 0.199 |
| A2C A23C | 0.0233 |
| A1U G7C | 0.0703 |
| A2C A30C | 0.0338 |
| A2C C27A | 0.0541 |
| A2C C21G | 0.0366 |
| A2C C21U | 0.0368 |
| A2G A10U | 0.346 |
| A2G C9U | 0.0996 |
| A2G C9A | 0.104 |
| A1U C25A | 0.0664 |
| A2C C26G | 0.0867 |
| A2G G38C | 0.118 |
| A2G G38A | 0.448 |
| A1C A40C | 0.186 |
| A1C A40G | 0.117 |
| A2G C26G | 0.035 |

| Variant | self-cleavage |
| --- | --- |
| A2G C26A | 0.134 |
| A2G C26U | 0.08 |
| A1C G13U | 0.207 |
| A1C G13C | 0.116 |
| A1C U12C | 0.144 |
| A2G C21U | 0.0523 |
| A1G C19U | 0.345 |
| A1G C19G | 0.202 |
| A2G G13C | 0.0608 |
| A2G G13U | 0.0873 |
| A2G G13A | 0.131 |
| A1C A2U | 0.346 |
| A1C A2G | 1.25 |
| A1C A2C | 1.36 |
| A1G C14G | 0.168 |
| A1G C14U | 0.693 |
| A1G C14A | 0.467 |
| A2C C3G | 0.127 |
| A2C C14U | 0.0681 |
| A2C G41C | 0.0702 |
| A2C G41A | 0.0488 |
| A2C G41U | 0.0822 |
| A1C G39A | 0.162 |
